From PMC1140370
Like-named read-outs stand apart in the source and are kept apart here.

Columns and labels:
Experiment in all cases: EMSA
[1] = target: T1, Mcm4/6/7 complex (mouse, UniProt P49717;Q61881;P97311 1-862;1-719;1-821)
[2] = target: T1, Mcm4/6/7 complex; remark: listed apart in the source
[3] = target: T1, Mcm4/6/7 complex; remark: listed apart in the source
[4] = target: T1, Mcm4/6/7 complex; remark: listed apart in the source
[5] = target: T1, Mcm4/6/7 complex; remark: listed apart in the source

T1 sequence (P49717 whole entry, chain 1 of 3): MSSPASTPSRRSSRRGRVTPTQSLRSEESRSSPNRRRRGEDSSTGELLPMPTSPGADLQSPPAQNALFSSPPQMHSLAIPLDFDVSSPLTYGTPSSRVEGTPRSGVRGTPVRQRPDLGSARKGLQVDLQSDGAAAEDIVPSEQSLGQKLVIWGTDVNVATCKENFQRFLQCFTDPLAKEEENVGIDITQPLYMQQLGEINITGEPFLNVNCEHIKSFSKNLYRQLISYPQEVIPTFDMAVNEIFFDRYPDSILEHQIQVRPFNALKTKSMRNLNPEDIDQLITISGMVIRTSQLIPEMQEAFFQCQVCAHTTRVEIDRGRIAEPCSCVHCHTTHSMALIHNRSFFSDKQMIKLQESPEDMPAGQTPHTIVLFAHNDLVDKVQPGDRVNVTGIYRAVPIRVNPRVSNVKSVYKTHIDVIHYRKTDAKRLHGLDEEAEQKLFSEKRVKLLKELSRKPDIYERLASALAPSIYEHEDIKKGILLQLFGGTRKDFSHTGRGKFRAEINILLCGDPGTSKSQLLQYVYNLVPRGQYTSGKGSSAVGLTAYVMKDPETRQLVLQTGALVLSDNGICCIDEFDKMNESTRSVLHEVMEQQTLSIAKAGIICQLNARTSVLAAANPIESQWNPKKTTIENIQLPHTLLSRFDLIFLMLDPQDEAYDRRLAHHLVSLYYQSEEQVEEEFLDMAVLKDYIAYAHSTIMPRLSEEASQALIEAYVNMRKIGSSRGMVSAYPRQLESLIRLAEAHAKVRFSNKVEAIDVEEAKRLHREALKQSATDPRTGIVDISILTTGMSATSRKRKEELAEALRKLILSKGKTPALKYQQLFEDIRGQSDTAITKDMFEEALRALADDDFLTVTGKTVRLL
T1 sequence (Q61881 whole entry, chain 2 of 3): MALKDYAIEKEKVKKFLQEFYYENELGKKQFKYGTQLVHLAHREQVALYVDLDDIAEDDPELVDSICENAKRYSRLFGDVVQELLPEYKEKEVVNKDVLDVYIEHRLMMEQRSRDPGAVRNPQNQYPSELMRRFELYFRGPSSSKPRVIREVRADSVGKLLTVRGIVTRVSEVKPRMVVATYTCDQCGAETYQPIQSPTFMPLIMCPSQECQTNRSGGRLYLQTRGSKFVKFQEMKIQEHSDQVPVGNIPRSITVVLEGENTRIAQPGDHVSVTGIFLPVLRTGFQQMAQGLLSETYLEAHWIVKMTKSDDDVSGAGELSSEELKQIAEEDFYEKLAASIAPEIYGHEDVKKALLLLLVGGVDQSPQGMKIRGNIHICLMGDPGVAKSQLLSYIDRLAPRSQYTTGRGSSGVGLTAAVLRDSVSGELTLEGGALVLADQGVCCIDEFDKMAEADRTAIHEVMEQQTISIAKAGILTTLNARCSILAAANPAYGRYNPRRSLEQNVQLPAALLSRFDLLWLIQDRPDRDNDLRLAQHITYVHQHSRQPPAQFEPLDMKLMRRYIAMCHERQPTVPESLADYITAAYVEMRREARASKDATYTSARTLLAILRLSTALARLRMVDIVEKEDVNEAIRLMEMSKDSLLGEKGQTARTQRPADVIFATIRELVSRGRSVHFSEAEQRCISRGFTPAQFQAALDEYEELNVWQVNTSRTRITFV
T1 sequence (P97311 whole entry, chain 3 of 3): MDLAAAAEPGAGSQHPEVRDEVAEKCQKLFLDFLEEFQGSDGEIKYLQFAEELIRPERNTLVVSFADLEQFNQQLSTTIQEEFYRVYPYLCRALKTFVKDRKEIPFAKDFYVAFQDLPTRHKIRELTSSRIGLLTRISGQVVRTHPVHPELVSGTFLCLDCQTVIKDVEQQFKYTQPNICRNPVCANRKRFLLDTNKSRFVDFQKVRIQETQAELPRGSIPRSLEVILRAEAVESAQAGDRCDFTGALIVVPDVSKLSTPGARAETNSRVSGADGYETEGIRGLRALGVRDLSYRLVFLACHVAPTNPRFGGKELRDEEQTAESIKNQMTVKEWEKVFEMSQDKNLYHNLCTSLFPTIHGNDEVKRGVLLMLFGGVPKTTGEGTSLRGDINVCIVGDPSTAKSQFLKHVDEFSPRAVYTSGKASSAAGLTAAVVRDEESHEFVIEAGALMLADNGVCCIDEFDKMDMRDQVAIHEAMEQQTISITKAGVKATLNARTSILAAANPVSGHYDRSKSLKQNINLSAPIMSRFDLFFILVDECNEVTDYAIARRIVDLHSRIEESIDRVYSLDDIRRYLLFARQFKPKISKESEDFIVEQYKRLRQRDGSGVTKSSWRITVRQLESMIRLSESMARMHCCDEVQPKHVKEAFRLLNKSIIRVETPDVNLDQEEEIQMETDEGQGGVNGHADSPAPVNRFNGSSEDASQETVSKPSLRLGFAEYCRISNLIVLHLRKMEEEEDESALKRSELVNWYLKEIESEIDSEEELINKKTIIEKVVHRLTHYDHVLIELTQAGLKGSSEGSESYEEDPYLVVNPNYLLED

B1: Bub-T40 (mixed)
DNA 1: GTTTTCCCAGTCACGACGTTGTAAAACGACTTTTTTTTTTTTTTTTTTTTTTTTTTTTTTTTTTTTTTTTTACCGAGCTCGAATTCGTAATCATGGTCAT
DNA 2: ATGACCATGATTACGAATTCGAGCTCGGTATTTTTTTTTTTTTTTTTTTTTTTTTTTTTTTTTTTTTTTTGTCGTTTTACAACGTCGTGACTGGGAAAAC
B1: binds [1].

B2: Bub-T30 (mixed)
DNA 1: GTTTTCCCAGTCACGACGTTGTAAAACGACTTTTTTTTTTTTTTTTTTTTTTTTTTTTTTTACCGAGCTCGAATTCGTAATCATGGTCAT
DNA 2: ATGACCATGATTACGAATTCGAGCTCGGTATTTTTTTTTTTTTTTTTTTTTTTTTTTTTTGTCGTTTTACAACGTCGTGACTGGGAAAAC
B2: binds [2].

B3: 3' dT50-extension (mixed)
DNA 1: GTTTTCCCAGTCACGACGTTGTAAAACGACGGCCAGTTTTTTTTTTTTTTTTTTTTTTTTTTTTTTTTTTTTTTTTTTTTTTTTTTT
DNA 2: ACTGGCCGTCGTTTTACAACGTCGTGACTGGGAAAAC
B3: binds [3].

B4: A-fork[3'] (mixed)
DNA 1: CGCATCGCCCACCTGCCTCTGGTGGAGGAGCTGCGTGCACTGAGGCAGTTGCACCTGAACCAGCTGATCCGTGCCGCTGGCGTGGTGGCCGCCTGCGCCGGAGTC
DNA 2: GGGTGAACCTGCAGGTGGGCAAAGATGTCCTAGCAAGGCACTGGTAGAATGGTGCAACTGCCTCAGTGCACGCAGCTCCTCCACCAGAGGCAGGTGGGCGATGCG
DNA 3: GACTCCGGCGCAGGCGGCCACCACGCCAGCGGCACGGATCAGCTGGTTCA
B4: binds [4].

B5: A-fork[5'] (mixed)
DNA 1: CGCATCGCCCACCTGCCTCTGGTGGAGGAGCTGCGTGCACTGAGGCAGTTGCACCTGAACCAGCTGATCCGTGCCGCTGGCGTGGTGGCCGCCTGCGCCGGAGTC
DNA 2: GGGTGAACCTGCAGGTGGGCAAAGATGTCCTAGCAAGGCACTGGTAGAATGGTGCAACTGCCTCAGTGCACGCAGCTCCTCCACCAGAGGCAGGTGGGCGATGCG
DNA 3: ATTCTACCAGTGCCTTGCTAGGACATCTTTGCCCACCTGCAGGTTCACCC
B5: binds [4].

B6: Bub-T20 (mixed)
DNA 1: GTTTTCCCAGTCACGACGTTGTAAAACGACTTTTTTTTTTTTTTTTTTTTTACCGAGCTCGAATTCGTAATCATGGTCAT
DNA 2: ATGACCATGATTACGAATTCGAGCTCGGTATTTTTTTTTTTTTTTTTTTTGTCGTTTTACAACGTCGTGACTGGGAAAAC
B6: binds [5].

B7: Bub-T50 (mixed)
DNA 1: GTTTTCCCAGTCACGACGTTGTAAAACGACTTTTTTTTTTTTTTTTTTTTTTTTTTTTTTTTTTTTTTTTTTTTTTTTTTTACCGAGCTCGAATTCGTAATCATGGTCAT
DNA 2: ATGACCATGATTACGAATTCGAGCTCGGTATTTTTTTTTTTTTTTTTTTTTTTTTTTTTTTTTTTTTTTTTTTTTTTTTTGTCGTTTTACAACGTCGTGACTGGGAAAAC
B7: binds [1].
